Data as given in PMC10781630, “Structural basis of Gabija anti-phage defence and viral immune evasion” (Nature, 2023).
Changes are numbered by the printed parent chain.

T1: GajA E379A;GajB (Bacillus cereus VD045;Bacillus cereus …, UniProt J8H9C1;J8HQ06 1-578;1-494, E379A|)
T1 sequence 1: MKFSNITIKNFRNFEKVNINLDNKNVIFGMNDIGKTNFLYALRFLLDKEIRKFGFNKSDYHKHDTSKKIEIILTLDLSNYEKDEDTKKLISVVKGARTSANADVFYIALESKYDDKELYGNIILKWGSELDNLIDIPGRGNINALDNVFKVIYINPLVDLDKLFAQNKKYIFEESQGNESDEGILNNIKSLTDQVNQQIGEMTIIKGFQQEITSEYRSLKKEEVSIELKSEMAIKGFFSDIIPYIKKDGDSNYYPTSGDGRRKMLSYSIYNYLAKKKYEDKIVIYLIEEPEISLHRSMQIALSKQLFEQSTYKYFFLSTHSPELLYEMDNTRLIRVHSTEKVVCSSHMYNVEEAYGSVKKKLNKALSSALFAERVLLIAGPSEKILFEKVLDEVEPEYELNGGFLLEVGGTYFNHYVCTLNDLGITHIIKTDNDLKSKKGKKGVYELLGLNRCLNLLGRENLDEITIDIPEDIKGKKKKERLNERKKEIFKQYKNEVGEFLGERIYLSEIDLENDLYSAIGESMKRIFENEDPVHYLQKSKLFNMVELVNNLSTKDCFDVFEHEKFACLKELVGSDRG
T1 sequence 2: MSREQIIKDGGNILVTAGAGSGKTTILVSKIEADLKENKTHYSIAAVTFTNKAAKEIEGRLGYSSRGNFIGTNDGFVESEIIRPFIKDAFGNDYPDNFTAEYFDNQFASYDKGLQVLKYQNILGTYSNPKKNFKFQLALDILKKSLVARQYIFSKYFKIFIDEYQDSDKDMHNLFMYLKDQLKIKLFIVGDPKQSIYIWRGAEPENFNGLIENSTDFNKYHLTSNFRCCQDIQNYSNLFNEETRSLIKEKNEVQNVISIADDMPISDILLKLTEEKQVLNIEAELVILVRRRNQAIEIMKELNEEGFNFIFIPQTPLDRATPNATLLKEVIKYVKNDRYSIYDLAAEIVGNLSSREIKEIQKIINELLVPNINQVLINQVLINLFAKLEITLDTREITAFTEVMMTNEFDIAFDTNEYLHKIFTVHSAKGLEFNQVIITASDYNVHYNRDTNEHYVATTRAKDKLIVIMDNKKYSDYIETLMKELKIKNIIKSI

T2: GajA;GajB (Bacillus cereus VD045;Bacillus cereus …, UniProt J8H9C1;J8HQ06 1-578;1-494, |)
T2 sequence 1: T1 sequence 1 with A379E
T2 sequence 2: T1 sequence 2

T3: SUMO2-tagged GajAB complex (Bacillus cereus VD045), 4:4 (Bacillus cereus VD045, UniProt J8H9C1 2-578; J8HQ06 1-494)
T3 construct: GajA, Bacillus cereus VD045, IMG ID 2519684552; GajB, Bacillus cereus VD045, IMG ID 2519684553; also called SUMO2-GajAB; SUMO2-tagged BcGajAB; source: E. coli, co-expressed, purified (Ni-NTA, SEC); not shown: 6×His-SUMO2, N-terminal, kept; copies: 4 + 4
T3 sequence 1: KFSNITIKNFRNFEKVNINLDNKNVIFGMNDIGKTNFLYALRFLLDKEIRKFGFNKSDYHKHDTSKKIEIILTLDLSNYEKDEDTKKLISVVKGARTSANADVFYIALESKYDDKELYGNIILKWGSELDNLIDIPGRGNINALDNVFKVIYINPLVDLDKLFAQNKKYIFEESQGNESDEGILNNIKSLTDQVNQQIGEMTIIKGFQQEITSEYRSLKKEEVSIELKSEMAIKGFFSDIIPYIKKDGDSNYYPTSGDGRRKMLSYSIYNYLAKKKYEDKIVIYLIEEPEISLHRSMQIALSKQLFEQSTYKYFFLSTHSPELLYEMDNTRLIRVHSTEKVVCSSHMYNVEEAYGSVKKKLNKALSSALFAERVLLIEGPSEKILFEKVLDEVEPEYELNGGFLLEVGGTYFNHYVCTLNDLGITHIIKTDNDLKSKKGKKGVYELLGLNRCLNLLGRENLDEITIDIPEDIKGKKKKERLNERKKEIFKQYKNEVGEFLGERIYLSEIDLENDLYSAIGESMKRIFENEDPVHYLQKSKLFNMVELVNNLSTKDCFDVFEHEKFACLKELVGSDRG
T3 sequence 2: T1 sequence 2

B1: 56-bp target dsDNA (dsDNA)
DNA 1: TTTTTTTTTTTTTTTTTAATAACCCGGTTATTTTTTTTTTTTTTTTTTTTTTTTTT
DNA 2: AAAAAAAAAAAAAAAAAAAAAAAAAATAACCGGGTTATTAAAAAAAAAAAAAAAAA
B2: Bacillus phage Phi3T Gad1 (Gabija anti-defence 1) (natural protein)
chain: MKLIGIKTSNCFLVSDNIEGKRYFHSQLDELLFDGKRATETYKSDWFKLEKEPSVIEKQMPAKKINHRYELKEGFQESELTPKVIKASYIGEDSEYYEVKGLYDLKFEEIPQQNEKIEFEMNVIEEIDGELKLQSHNFNLNYNLLDRIQTHPMLLETKPCYLSQEESYKIIRNHIKANINPKFARITSDYDFCLTVVKVLELYKPHEYIVDLNAMYKRRKPKLEKRFQTKREVEIYKVAPKAYQSYPIVEPFSGKDVEDLKSNIKKFLDDLMAKINEPLVECKCCKGRGVILNEN
notes: Gad1, Bacillus phage Phi3T, 35 kDa; Eight copies stand in the 4:4:8 GajAB–Gad1 complex; source: E. coli, co-expressed with SUMO2-GajAB (pBAD vector), co-purified (Ni-NTA, SEC)
B3: 56-bp scrambled dsDNA (dsDNA)
DNA 1: TTTTTTTTTTTTTTTTTGACATTACATTCAGTTTTTTTTTTTTTTTTTTTTTTTTT
DNA 2: AAAAAAAAAAAAAAAAAAAAAAAAACTGAATGTAATGTCAAAAAAAAAAAAAAAAA
B4: Bacillus cereus VD045 GajA (Gabija protein A), expressed alone (enzyme)
chain: T3 sequence 1
notes: GajA, Bacillus cereus VD045, IMG ID 2519684552; gene codon-optimized and synthesized; the C-terminal 6×His construct is the only GajA-alone construct described; also called BcGajA; GajA alone; source: E. coli BL21(DE3) strains, purified (Ni-NTA, SEC); also co-expressed with Shewanella phage 1/4 Gad1, in lysate for Ni-NTA co-purification; not shown: 6×His, C-terminal, kept
B5: Bacillus cereus VD045 GajA, co-expressed with GajB, tag removed (subunit of the GajAB complex) (enzyme)
chain: T3 sequence 1
notes: GajA, Bacillus cereus VD045, IMG ID 2519684552; the 5×GS linker may stay on GajA after SENP2 cleavage; also called BcGajA; source: E. coli BL21(DE3) strains, co-expressed with GajB, purified (Ni-NTA, SUMO2 cleavage by hSENP2, SEC); not shown: 6×His-SUMO2-5×GS, N-terminal, cleaved
B6: Bacillus cereus VD045 GajB, untagged, co-expressed with tagged GajA (enzyme)
chain: T1 sequence 2
notes: GajB, Bacillus cereus VD045, IMG ID 2519684553; also called BcGajB; source: co-purified (Ni-NTA, SEC) or in lysate

Tests used:
GajA E379A;GajB = molecular target: T1, GajA E379A;GajB; assay: EMSA; 5 mM Ca2+; settings: protein: recombinant;recombinant; tags: N-terminal 6xHis-SUMO2-5xGS, cleaved by SENP2;none in co-expressed complex; chain copies: 4;4; label: none (ethidium bromide post-stain)
GajA;GajB = molecular target: T2, GajA;GajB; assay: EMSA; 5 mM Ca2+; settings: protein: recombinant;recombinant; chain copies: 4;4; label: none (ethidium bromide post-stain)
[1] = molecular target: T3, SUMO2-tagged GajAB complex (Bacillus …); assay: cryo-EM structure; SUMO2-GajAB–Gad1 (Phi3T) co-complex, 1 mg ml^-1, 2.57 Å D2 symmetry map; settings: both partners purified
[2] = molecular target: the molecule itself; assay: as above
[3] = molecular target: the molecule itself; assay: SEC; 16/600 S200 (Superdex 200); recombinant BcGajA and BcGajB each run alone
[4] = molecular target: the molecule itself; assay: crystal structure; co-expressed and co-purified GajAB, 3.0 Å; hanging drop, 18 °C, 100 mM HEPES-NaOH pH 7.5, 2.4% PEG-400, 2.2 M ammonium sulfate
[5] = molecular target: Bacillus cereus VD045 GajB, untagged, co-expressed with tagged GajA (Bacillus cereus VD045) (UniProt J8HQ06); assay: as above
[6] = molecular target: B5; assay: as above; settings: both partners purified

Binder: B1
- binding result (GajA E379A;GajB): binds
- binding result (GajA;GajB): binds

Binder: B2
- stoichiometry N [1]: 8 Gad1 per 4:4 GajAB complex
- stoichiometry N [2]: 8

Binder: B3
- binding result (GajA E379A;GajB): binds

Binder: B4
- stoichiometry N [3]: 4

Binder: B5
- stoichiometry N [4]: 4

Binder: B6
- stoichiometry N [5]: 2
- stoichiometry N [6]: 1 GajB per GajA (4:4)
